According to paper PMC7335050, “Characterization of an alternative BAK-binding site for BH3 peptides” (Nature Communications, 2020):

Target: T1, BAKΔTM (human, UniProt Q16611 1-186)
T1 construct: BAK without the transmembrane segment, human, residues 1-186 of GenBank BC004431, in pET29b(+); Named His6-BAKΔTM in the liposome and cytochrome c assays; no tag removal is described; also called His6-BAKΔTM; WT BAKΔTM; source: E. coli BL21, purified (Ni2+-NTA-agarose, Superdex S200)
T1 sequence (looked up): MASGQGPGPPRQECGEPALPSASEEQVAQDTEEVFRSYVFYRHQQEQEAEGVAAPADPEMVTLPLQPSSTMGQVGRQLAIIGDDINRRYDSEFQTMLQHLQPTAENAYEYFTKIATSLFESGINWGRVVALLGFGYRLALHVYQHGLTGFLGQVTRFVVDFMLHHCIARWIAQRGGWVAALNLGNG
Assay: SPR; BAKΔTM or mutants immobilised on a CM5 chip (Biacore T200; about 4000 RU in the mutant comparisons), BH3 peptides injected at 30 µl per min for 1 min, 25 °C, 10 mM HEPES pH 7.4, 150 mM NaCl, 0.05 mM EDTA, 0.005% polysorbate 20; steady-state analysis, approximate constants
Settings: both partners purified

- Kd: < 1000 nM
Binder: HQAEVQIARKLQCIADQFHRLHVQQH [BMF BH3 peptide]
